Reference: publication PMC3510514 (Nucleic Acids Research, 2012)

Target: T1, GST-ubiquitin (human, UniProt P0CG48 1-76)
T1 construct: ubiquitin, the cut product of the polyubiquitin precursor; also called GST-tagged ubiquitin; source: purified
Assay: pull-down; GST-ubiquitin (3 μg) on glutathione-sepharose beads, FLAG-Spartan (1 μg) in solution; 4 h at 4°C, buffer I (40 mM Tris HCl pH 7.5, 85 mM NaCl, 0.1 mM DTT, 10% glycerol, 0.01% NP40); immunoblot with anti-FLAG and anti-GST
Settings: both partners purified

binding result: binds
B1: FLAG-Spartan PIP mutant YF331,332AA (natural protein, human, UniProt Q9H040 1-489, looked up)
chain: MDDDLMLALRLQEEWNLQEAERDHAQESLSLVDASWELVDPTPDLQALFVQFNDQFFWGQLEAVEVKWSVRMTLCAGICSYEGKGGMCSIRLSEPLLKLRPRKDLVETLLHEMIHAYLFVTNNDKDREGHGPEFCKHMHRINSLTGANITVYHTFHDEVDEYRRHWWRCNGPCQHRPPYYGYVKRATNREPSAHDYWWAEHQKTCGGTYIKIKEPENYSKKGKGKAKLGKEPVLAAENKDKPNRGEAQLVIPFSGKGYVLGETSNLPSPGKLITSHAINKTQDLLNQNHSANAVRPNSKIKVKFEQNGSSKNSHLVSPAVSNSHQNVLSNAAPRVSFANQKAFRGVNGSPRISVTVGNIPKNSVSSSSQRRVSSSKISLRNSSKVTESASVMPSQDVSGSEDTFPNKRPRLEDKTVFDNFFIKKEQIKSSGNDPKYSTTTAQNSSSSSSQSKMVNCPVCQNEVLESQINEHLDWCLEGDSIKVKSEESL
notes: Spartan/C1orf124, human; cDNA clone bought from ImaGenes; also called PIP mutant Spartan; YF331,332AA Spartan; source: S. cerevisiae BJ5464, purified (glutathione-Sepharose, eluted by PreScission protease); not shown: GST, N-terminal, cleaved; FLAG, N-terminal, kept
